Consider two substances from patent US20160074473A1, “EFFECT OF PHOSPHOLIPID COMPOSITION OF RECONSTITUTED HDL ON ITS CHOLESTEROL EFFLUX AND ANTI-INFLAMMATORY PROPERTIES” (Kinemed, Inc., priority 2014, published 2016).

Where “and” joins values, the source holds several entries; their conditions need not be identical. Identical values can stand only once. Like-named read-outs stand apart in the source and are kept apart here.

Series [1] in a line: Alpha-helical content by circular dichroism. The format is physicochemical. On the procedure:
High-density lipoprotein-like 5A-POPC and 5A-SM complexes were prepared by a co-lyophilization procedure (25, 26). Peptide and phospholipids were dissolved in glacial acetic acid and mixed at 1:1.25 w/w ratio (approximately 1:7 molar ratio) and lyophilized. The powder was hydrated with bicarbonate buffered saline and cycled between 50° C. and room temperature to facilitate 5A-lipid binding. The resulting HDL complexes were analyzed by gel permeation chromatography, with UV detection at 220 nm, using Tosoh TSK gel G3000SWx1 column (Tosoh Bioscience, King of Prussia, Pa.). The HDL hydrodynamic diameters were determined by dynamic light scattering (DLS), using a Zetasizer Nano, Malvern Instruments (Westborough, Mass.). The number and intensity average values were reported. The alpha-helical contents of free and lipid bound 5A peptide were determined by Jasco J715 (Jasco, Easton, Md.) circular dichroism spectropolarimeter. Samples at 0.1 mg/mL concentration were loaded into a quartz cuvette (d=0.2-cm path length), and CD spectra from 185 to 240 nm were recorded at 24° C. […]
High-density lipoprotein-like 5A-POPC and 5A-SM complexes were prepared by a co-lyophilization procedure (25, 26). […] The resulting HDL complexes were analyzed by gel permeation chromatography, with UV detection at 220 nm, using Tosoh TSK gel G3000SWx1 column (Tosoh Bioscience, King of Prussia, Pa.). […]
A general note: CD spectra are sensitive to the conformation of chiral molecules.

The target of series [2] is T1, BHK cells stably transfected with human ABCG1 (Homo sapiens, UniProt P45844).
T1 construct: expressed in transfected cells; host or cells: BHK cells (stably transfected, mifepristone-inducible)
In words: Cholesterol efflux assay in vitro, ABCG1. The note with it: 18 h incubation. The format is cell-based. How it is done: (§1) Cholesterol efflux studies were performed, as described previously (25, 26). Briefly, BHK-mock and BHK stably transfected cells with human ABCA1 cDNA, ABCG1 cDNA and SR-BI cDNA were labeled for 24 h with 1 μCi/ml of ^3H-cholesterol in minimum essential medium medium plus 10% fetal calf serum. Transporters were induced with 10 nM mifepristone in Dulbecco's modified Eagle's medium (DMEM), containing 0.2 mg/ml of fatty acid-free bovine serum albumin for 18 h. Following induction of the transporters, the cells were washed and test articles were added at 0.1, 2.5, 5, 10, 20 and 40 μM in DMEM-BSA containing mifepristone. The cholesterol efflux by BSA, free 5A peptide, purified HDL, and ApoA-I were used as quality control standards. […] Radioactive counts in media and cell fractions were measured by liquid scintillation counting, and percent cholesterol effluxed was calculated by dividing media count by the sum of media and cell counts. […]
(§2) Cholesterol efflux studies were performed, as described previously (25, 26). […] Radioactive counts in media and cell fractions were measured by liquid scintillation counting, and percent cholesterol effluxed was calculated by dividing media count by the sum of media and cell counts.

For series [3], the target named is T2, BHK cells stably transfected with human SR-BI (Homo sapiens, UniProt Q8WTV0).
T2 construct: expressed in transfected cells; host or cells: BHK cells (stably transfected, mifepristone-inducible)
T2 sequence (Q8WTV0 1-552): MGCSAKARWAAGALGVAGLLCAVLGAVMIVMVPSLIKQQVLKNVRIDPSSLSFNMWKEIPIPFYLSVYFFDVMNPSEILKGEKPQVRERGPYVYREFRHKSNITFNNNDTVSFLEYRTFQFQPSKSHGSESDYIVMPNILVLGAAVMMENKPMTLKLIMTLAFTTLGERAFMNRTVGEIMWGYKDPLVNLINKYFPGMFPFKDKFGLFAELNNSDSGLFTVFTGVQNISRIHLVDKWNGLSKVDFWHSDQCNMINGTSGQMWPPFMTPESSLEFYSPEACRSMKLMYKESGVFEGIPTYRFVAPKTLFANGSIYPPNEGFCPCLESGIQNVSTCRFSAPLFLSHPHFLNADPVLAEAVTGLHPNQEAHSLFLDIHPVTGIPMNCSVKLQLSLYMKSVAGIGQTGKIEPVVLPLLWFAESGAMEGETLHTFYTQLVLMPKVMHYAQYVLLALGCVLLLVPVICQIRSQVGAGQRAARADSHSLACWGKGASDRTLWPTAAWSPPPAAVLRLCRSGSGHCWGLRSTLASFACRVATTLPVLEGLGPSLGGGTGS
Nature of the series: Cholesterol efflux assay in vitro, SR-BI. The format is cell-based. The note with it: 18 h incubation. On the procedure: as §1, §2

The conditions of series [4]: cited from earlier work.

On to “DWLKAFYDKVAEKLKEAFPDWAKAAYDKAAEKAKEAA [5A, ApoA-I mimetic, 37-amino acid-long bi-helical peptide]”, for which, in series [1] (Example 1, 0.1 mg/mL, 24° C.), the “Helicity (%)” value is 19% and 18.9%. For the same substance, the alpha-helix content in series [1] (Example 2, n=3, mean±SD) was 18.8±0.3%. In series [2], the “cholesterol efflux via ABCG1” value is on record as “relatively low cholesterol efflux”. Further, the “cholesterol efflux via SR-BI” value in series [3] was “relatively low cholesterol efflux”.
Regarding “apoA-I: the main protein in High Density Lipoprotein (HDL)”, the figures for the helicity result in series [4] (associated with lipids) and in series [4] (lipid-free state) were “over 80%” and “about 20%”, respectively.
